Test results reported in patent US20190225698A1 (JIANGSU HENGRUI MEDICINE, published 2019).

Target: T1, human CD27-HisFc fusion protein (human, UniProt P26842 20-192)
T1 construct: also called CD27-HisFc (Sino Biological #10039-H03H); not shown: His tag and Fc
T1 sequence (looked up): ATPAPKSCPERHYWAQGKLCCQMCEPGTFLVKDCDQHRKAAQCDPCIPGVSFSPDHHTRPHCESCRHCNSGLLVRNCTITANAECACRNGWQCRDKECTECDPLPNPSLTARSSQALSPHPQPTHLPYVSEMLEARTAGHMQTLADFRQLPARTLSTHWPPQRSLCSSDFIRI
Experiment: BLI (Octet RED96), CD27-HisFc captured on AHC sensor, Fab in solution
Procedure: A histidine tag was added to each unique sequence of the antibody Fab fragment at the C-terminal, and the antibody Fab fragment was overexpressed in an E. coli expression system, and then purified by using Ni-NTA affinity resin. […] The collected data was processed by Data Acquisition 7.1 software and fitted to a 1:1 combined Langmuir model curve. The mAb076 and mAb077 antibodies were the two antibodies with optimal binding and were selected for further analysis and development experiments.

Binder | binding result
mAb076 antibody Fab fragment with C-terminal histidine tag (Fab, V domains shown) VH: EVQLVESGGGLVQPGGSLRLSCAASGFTFSDYGIHWVRQAPGKGLEWIGWINPNRGSTNYAQKFQGRVTISRDNSKNTLYLQLNSLRAEDTAVYYCARDYGYTWYFDVWGQGTLVTVSS VL: DIQLTQSPSSLSASVGDRVTITCRASQDISSVLAWYQQKPGKAPKLLIYAASSLQSGVPSRFSGSGSGTDFTLTISSLQPEDFATYYCQQRDAWPLTFGQGTKVEIK | binds
mAb077 antibody Fab fragment with C-terminal histidine tag (Fab, V domains shown) VH: EVQLVESGGGLVQPGGSLRLSCAASGFTFSGYGIHWVRQAPGKGLEWIGWINPNRGSTKYAQKFQGRVTISRDNSKNTLYLQLNSLRAEDTAVYYCARDPGYTWYFDVWGQGTLVTVSS VL: DIQLTQSPSSLSASVGDRVTITCRASQDISSDLAWYQQKPGKAPKLLIYAASTLQSGVPSRFSGSGSGTDFTLTISSLQPEDFATYYCQQRDAWPPTFGQGTKVEIK | binds
